# The supplement of paper PMC9112550, “Optimization of the antimicrobial peptide Bac7 by deep mutational scanning” (BMC Biology, 2022)
# Test system: Escherichia coli TOP10
# Assay: shrunken log2 fold change of peptide-encoding DNA abundance (4.5 h post-induction vs induction); higher = less antimicrobial activity (less host growth inhibition)
# Conditions: time post-induction: 4.5 h; library: site-saturation at positions 5, 18, 19, 20
# 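Note: peptides expressed intracellularly from a pBAD plasmid library in pooled LB shake-flask culture, induced with 0.3% L-arabinose, DNA abundance read by NGS, three biological replicates, DESeq2 with apeglm shrinkage.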
row,Sequence,shrunken log2 fold change
1,RRIRVRPPRLPRPRPRPKPKPRP,0.312
2,RRIRTRPPRLPRPRPRPYKFPRP,0.00477
3,RRIRARPPRLPRPRPRPPHQPRP,0.952
4,RRIRGRPPRLPRPRPRPWPDPRP,0.194
5,RRIRHRPPRLPRPRPRPRPPPRP,1.15
6,RRIRERPPRLPRPRPRPCCEPRP,-0.366
7,RRIRTRPPRLPRPRPRPCFAPRP,0.083
8,RRIRLRPPRLPRPRPRPWPIPRP,0.0461
9,RRIRLRPPRLPRPRPRPSCYPRP,-0.164
10,RRIRCRPPRLPRPRPRPDAIPRP,-0.0147
11,RRIRIRPPRLPRPRPRPMKDPRP,-0.135
12,RRIRIRPPRLPRPRPRPRSMPRP,-0.695
13,RRIRARPPRLPRPRPRPCNMPRP,-0.253
14,RRIRERPPRLPRPRPRPGMRPRP,0.471
15,RRIRKRPPRLPRPRPRPGSHPRP,0.0202
16,RRIRIRPPRLPRPRPRPTVIPRP,-0.108
17,RRIRPRPPRLPRPRPRPENWPRP,0.264
18,RRIRKRPPRLPRPRPRPHQWPRP,0.264
19,RRIRARPPRLPRPRPRPPHFPRP,1.41
20,RRIRRRPPRLPRPRPRPQMGPRP,0.231
21,RRIRRRPPRLPRPRPRPWQFPRP,-0.0199
22,RRIRQRPPRLPRPRPRPEFMPRP,-0.0743
23,RRIRSRPPRLPRPRPRPNNPPRP,-0.3
24,RRIRKRPPRLPRPRPRPDMLPRP,-0.0389
25,RRIRKRPPRLPRPRPRPVMGPRP,0.155

row,Sequence,shrunken log2 fold change
1,RRIRQRPPRLPRPRPRPTIMPRP,-0.127
2,RRIRMRPPRLPRPRPRPIWLPRP,0.0637
3,RRIRSRPPRLPRPRPRPMEWPRP,0.199
4,RRIRKRPPRLPRPRPRPWSLPRP,0.0414
5,RRIRARPPRLPRPRPRPFCDPRP,0.0183
6,RRIRCRPPRLPRPRPRPDVGPRP,-0.0874
7,RRIRVRPPRLPRPRPRPITIPRP,-0.0236
8,RRIRKRPPRLPRPRPRPGRIPRP,-0.0354
9,RRIRLRPPRLPRPRPRPGIHPRP,-0.322
10,RRIRVRPPRLPRPRPRPERQPRP,0.514
11,RRIRARPPRLPRPRPRPCHCPRP,0.164
12,RRIRARPPRLPRPRPRPQPMPRP,0.229
13,RRIRCRPPRLPRPRPRPQWRPRP,0.274
14,RRIRGRPPRLPRPRPRPQNEPRP,0.208
15,RRIRTRPPRLPRPRPRPNMHPRP,0.561
16,RRIRRRPPRLPRPRPRPINCPRP,-0.129
17,RRIRIRPPRLPRPRPRPYWRPRP,-0.478
18,RRIRARPPRLPRPRPRPTKHPRP,0.217
19,RRIRDRPPRLPRPRPRPGWDPRP,-0.182
20,RRIRRRPPRLPRPRPRPNRYPRP,-0.365
21,RRIRSRPPRLPRPRPRPDVSPRP,-0.0357
22,RRIRNRPPRLPRPRPRPVSIPRP,-0.0773
23,RRIRKRPPRLPRPRPRPASQPRP,0.0905
24,RRIRPRPPRLPRPRPRPCVSPRP,-0.0858
25,RRIRRRPPRLPRPRPRPQECPRP,-0.0184

row,Sequence,shrunken log2 fold change
1,RRIRARPPRLPRPRPRPYIFPRP,-0.277
2,RRIRMRPPRLPRPRPRPQTDPRP,0.19
3,RRIRQRPPRLPRPRPRPRGDPRP,0.346
4,RRIRVRPPRLPRPRPRPVFSPRP,-0.176
5,RRIRFRPPRLPRPRPRPSRIPRP,-0.119
6,RRIRYRPPRLPRPRPRPIALPRP,-0.0389
7,RRIRTRPPRLPRPRPRPGNLPRP,0.021
8,RRIRTRPPRLPRPRPRPWDVPRP,-0.092
9,RRIRCRPPRLPRPRPRPMVSPRP,0.0237
10,RRIRMRPPRLPRPRPRPERKPRP,2.06
11,RRIRHRPPRLPRPRPRPGCKPRP,0.229
12,RRIRWRPPRLPRPRPRPNRAPRP,0.0222
13,RRIRKRPPRLPRPRPRPLDAPRP,0.748
14,RRIRTRPPRLPRPRPRPFMPPRP,-0.618
15,RRIRHRPPRLPRPRPRPPMAPRP,0.197
16,RRIRLRPPRLPRPRPRPHPRPRP,0.276
17,RRIRYRPPRLPRPRPRPFRYPRP,-0.315
18,RRIRYRPPRLPRPRPRPPTRPRP,0.277
19,RRIRMRPPRLPRPRPRPKWDPRP,0.68
20,RRIRHRPPRLPRPRPRPEGAPRP,0.686
21,RRIRYRPPRLPRPRPRPGMAPRP,-0.262
22,RRIRKRPPRLPRPRPRPQPWPRP,0.805
23,RRIRSRPPRLPRPRPRPDESPRP,-0.264
24,RRIRPRPPRLPRPRPRPVRPPRP,0.854
25,RRIRQRPPRLPRPRPRPNYMPRP,-0.226

row,Sequence,shrunken log2 fold change
1,RRIRNRPPRLPRPRPRPGTEPRP,-0.145
2,RRIRARPPRLPRPRPRPQKMPRP,-0.000461
3,RRIRVRPPRLPRPRPRPFKSPRP,0.0446
4,RRIRIRPPRLPRPRPRPDFGPRP,-0.196
5,RRIRPRPPRLPRPRPRPIGCPRP,-0.0888
6,RRIRIRPPRLPRPRPRPAPMPRP,0.0013
7,RRIRVRPPRLPRPRPRPKHQPRP,0.0697
8,RRIRWRPPRLPRPRPRPGYRPRP,0.0673
9,RRIRTRPPRLPRPRPRPPAFPRP,-0.216
10,RRIRKRPPRLPRPRPRPKAVPRP,-0.11
11,RRIRHRPPRLPRPRPRPIWHPRP,-0.327
12,RRIRGRPPRLPRPRPRPTEKPRP,0.455
13,RRIRCRPPRLPRPRPRPCKKPRP,-0.205
14,RRIRQRPPRLPRPRPRPHQNPRP,-0.246
15,RRIRPRPPRLPRPRPRPVNHPRP,-0.277
16,RRIRCRPPRLPRPRPRPCTFPRP,-0.856
17,RRIRFRPPRLPRPRPRPNVSPRP,-0.0196
18,RRIRLRPPRLPRPRPRPCCSPRP,-0.144
19,RRIRERPPRLPRPRPRPLVHPRP,-0.158
20,RRIRCRPPRLPRPRPRPCKIPRP,-0.543
21,RRIRQRPPRLPRPRPRPMHFPRP,0.169
22,RRIRPRPPRLPRPRPRPSEHPRP,-0.233
23,RRIRHRPPRLPRPRPRPEYCPRP,-0.201
24,RRIRWRPPRLPRPRPRPCSPPRP,-0.106
25,RRIRFRPPRLPRPRPRPYSQPRP,-0.411

row,Sequence,shrunken log2 fold change
1,RRIRVRPPRLPRPRPRPSNHPRP,-0.636
2,RRIRQRPPRLPRPRPRPGAQPRP,0.528
3,RRIRPRPPRLPRPRPRPPINPRP,-0.158
4,RRIRYRPPRLPRPRPRPAPFPRP,-0.11
5,RRIRPRPPRLPRPRPRPILDPRP,-0.0669
6,RRIRARPPRLPRPRPRPYMHPRP,-0.361
7,RRIRLRPPRLPRPRPRPDVSPRP,0.0432
8,RRIRNRPPRLPRPRPRPHTVPRP,-0.118
9,RRIRMRPPRLPRPRPRPLPHPRP,0.407
10,RRIRYRPPRLPRPRPRPLNFPRP,-1.01
11,RRIRHRPPRLPRPRPRPHNTPRP,-0.709
12,RRIRMRPPRLPRPRPRPRTSPRP,0.623
13,RRIRLRPPRLPRPRPRPCEVPRP,0.0632
14,RRIRSRPPRLPRPRPRPQIIPRP,-0.226
15,RRIRLRPPRLPRPRPRPKKCPRP,-0.198
16,RRIRRRPPRLPRPRPRPEQCPRP,-0.00836
17,RRIRHRPPRLPRPRPRPTTWPRP,-0.182
18,RRIRFRPPRLPRPRPRPSFHPRP,-0.694
19,RRIRIRPPRLPRPRPRPPWKPRP,0.089
20,RRIRWRPPRLPRPRPRPWIFPRP,-0.679
21,RRIRPRPPRLPRPRPRPRHCPRP,0.115
22,RRIRWRPPRLPRPRPRPLRFPRP,0.399
23,RRIRARPPRLPRPRPRPCMWPRP,0.117
24,RRIRIRPPRLPRPRPRPHGCPRP,-0.282
25,RRIRIRPPRLPRPRPRPQTEPRP,-0.168
